According to PMC8224240 (Molecular cell, 2020):

Target: T1, human Smc6 with Strep-tag II (StreptagII-Smc6) (human, UniProt Q96SB8 1-1091)
T1 sequence (looked up): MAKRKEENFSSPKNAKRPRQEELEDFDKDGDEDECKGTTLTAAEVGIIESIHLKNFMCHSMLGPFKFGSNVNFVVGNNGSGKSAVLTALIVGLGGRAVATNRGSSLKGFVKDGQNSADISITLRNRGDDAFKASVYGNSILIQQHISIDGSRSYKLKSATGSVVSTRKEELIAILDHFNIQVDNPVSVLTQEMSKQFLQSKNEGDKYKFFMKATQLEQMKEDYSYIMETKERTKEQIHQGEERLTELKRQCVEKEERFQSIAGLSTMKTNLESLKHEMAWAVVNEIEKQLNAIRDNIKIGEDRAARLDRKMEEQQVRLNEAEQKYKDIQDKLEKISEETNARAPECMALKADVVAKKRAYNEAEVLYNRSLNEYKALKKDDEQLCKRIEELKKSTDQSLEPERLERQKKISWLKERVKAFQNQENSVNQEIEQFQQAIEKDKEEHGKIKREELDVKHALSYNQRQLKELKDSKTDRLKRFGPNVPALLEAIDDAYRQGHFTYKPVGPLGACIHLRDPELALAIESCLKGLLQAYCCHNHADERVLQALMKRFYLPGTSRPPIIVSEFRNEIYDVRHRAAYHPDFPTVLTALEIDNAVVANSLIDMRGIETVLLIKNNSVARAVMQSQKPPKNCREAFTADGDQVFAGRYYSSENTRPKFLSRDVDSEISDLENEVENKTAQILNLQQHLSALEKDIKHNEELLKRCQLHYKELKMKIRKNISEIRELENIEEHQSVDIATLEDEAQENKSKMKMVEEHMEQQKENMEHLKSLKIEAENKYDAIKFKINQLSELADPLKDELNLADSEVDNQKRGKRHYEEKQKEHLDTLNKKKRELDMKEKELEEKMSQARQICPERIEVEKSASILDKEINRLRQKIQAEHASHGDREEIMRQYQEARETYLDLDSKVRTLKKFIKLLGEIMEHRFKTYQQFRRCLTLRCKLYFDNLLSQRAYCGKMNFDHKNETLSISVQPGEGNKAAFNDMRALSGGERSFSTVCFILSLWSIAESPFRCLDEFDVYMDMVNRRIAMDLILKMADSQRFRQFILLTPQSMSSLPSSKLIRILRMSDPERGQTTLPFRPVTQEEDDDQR
Assay: tandem affinity co-purification

B1: human Smc5 with poly-histidine tag (His-Smc5), subunit of the Smc5/6 dimer (natural protein, UniProt Q8IY18 1-1101, looked up)
chain: MATPSKKTSTPSPQPSKRALPRDPSSEVPSKRKNSAPQLPLLQSSGPFVEGSIVRISMENFLTYDICEVSPGPHLNMIVGANGTGKSSIVCAICLGLAGKPAFMGRADKVGFFVKRGCSRGMVEIELFRASGNLVITREIDVAKNQSFWFINKKSTTQKIVEEKVAALNIQVGNLCQFLPQDKVGEFAKLSKIELLEATEKSIGPPEMHKYHCELKNLREKEKQLETSCKEKTEYLQKMVQRNERYKQDVERFYERKRHLDLIEMLEAKRPWVEYENVRQEYEEVKLVRDRVKEEVRKLKEGQIPVTCRIEEMENERHNLEARIKEKATDIKEASQKCKQKQDVIERKDKHIEELQQALIVKQNEELDRQRRIGNTRKMIEDLQNELKTTENCENLQPQIDAITNDLRRIQDEKALCEGEIIDKRRERETLEKEKKSVDDHIVRFDNLMNQKEDKLRQRFRDTYDAVLWLRNNRDKFKQRVCEPIMLTINMKDNKNAKYIENHIPSNDLRAFVFESQEDMEVFLKEVRDNKKLRVNAVIAPKSSYADKAPSRSLNELKQYGFFSYLRELFDAPDPVMSYLCCQYHIHEVPVGTEKTRERIERVIQETRLKQIYTAEEKYVVKTSFYSNKVISSNTSLKVAQFLTVTVDLEQRRHLEEQLKEIHRKLQAVDSGLIALRETSKHLEHKDNELRQKKKELLERKTKKRQLEQKISSKLGSLKLMEQDTCNLEEEERKASTKIKEINVQKAKLVTELTNLIKICTSLHIQKVDLILQNTTVISEKNKLESDYMAASSQLRLTEQHFIELDENRQRLLQKCKELMKRARQVCNLGAEQTLPQEYQTQVPTIPNGHNSSLPMVFQDLPNTLDEIDALLTEERSRASCFTGLNPTIVQEYTKREEEIEQLTEELKGKKVELDQYRENISQVKERWLNPLKELVEKINEKFSNFFSSMQCAGEVDLHTENEEDYDKYGIRIRVKFRSSTQLHELTPHHQSGGERSVSTMLYLMALQELNRCPFRVVDEINQGMDPINERRVFEMVVNTACKENTSQYFFITPKLLQNLPYSEKMTVLFVYNGPHMLEPNTWNLKAFQRRRRRITFTQPS
stoichiometry N: 1
